From patent US12383631

What was measured:
[1] = target: Composition A (LZM-009 conjugated to IL-18 polypeptide of SEQ ID NO: 30) (human) (UniProt Q14116)
[2] = target: Composition C (Trastuzumab/Herceptin conjugated to IL-18 polypeptide of SEQ ID NO: 30) (human)
[3] = target: Composition D (LZM-009 conjugated to IL-18 polypeptide of SEQ ID NO: 31) (human) (UniProt Q14116)
[4] = target: IL-18 polypeptide of SEQ ID NO: 31 (C38A, C76A, C127A) (human) (UniProt Q14116)
[5] = target: native IL-18 wild-type (SEQ ID NO: 1) (human) (UniProt Q14116)
[6] = target: Composition B (Atezolizumab/Tecentriq conjugated to IL-18 polypeptide of SEQ ID NO: 30) (human) [IgG part: P0DOX5]; assay: cell-based or functional assay
[7] = target: Composition C (Trastuzumab/Herceptin conjugated to IL-18 polypeptide of SEQ ID NO: 30) (human); assay: cell-based or functional assay
[8] = target: IL-18 polypeptide C144 (human) (UniProt Q14116); assay: cell-based or functional assay
[9] = target: IL-18 polypeptide C147 (human) (UniProt Q14116); assay: cell-based or functional assay
[10] = target: IL-18 polypeptide C148 (human) (UniProt Q14116); assay: cell-based or functional assay
[11] = target: IL-18 polypeptide C151 (human) (UniProt Q14116); assay: cell-based or functional assay
[12] = target: IL-18 polypeptide C152 (human) (UniProt Q14116); assay: cell-based or functional assay
[13] = target: IL-18 polypeptide C156 (human) (UniProt Q14116); assay: cell-based or functional assay
[14] = target: IL-18 polypeptide C157 (human) (UniProt Q14116); assay: cell-based or functional assay
[15] = target: IL-18 polypeptide C158 (human) (UniProt Q14116); assay: cell-based or functional assay
[16] = target: IL-18 polypeptide C160 (human) (UniProt Q14116); assay: cell-based or functional assay
[17] = target: IL-18 polypeptide C161 (human) (UniProt Q14116); assay: cell-based or functional assay
[18] = target: IL-18 polypeptide C162 (human) (UniProt Q14116); assay: cell-based or functional assay
[19] = target: IL-18 polypeptide C164 (human) (UniProt Q14116); assay: cell-based or functional assay
[20] = target: IL-18 polypeptide C166 (human) (UniProt Q14116); assay: cell-based or functional assay
[21] = target: IL-18 polypeptide C168 (human) (UniProt Q14116); assay: cell-based or functional assay
[22] = target: IL-18 polypeptide of SEQ ID NO: 31 (C38A, C76A, C127A) (human) (UniProt Q14116); assay: cell-based or functional assay
[23] = target: IL-18 polypeptide of SEQ ID NO: 36 (K53A) (human) (UniProt Q14116); assay: cell-based or functional assay
[24] = target: IL-18 polypeptide of SEQ ID NO: 37 (S55A) (human) (UniProt Q14116); assay: cell-based or functional assay
[25] = target: IL-18 polypeptide of SEQ ID NO: 4 (E6K, C38A, K53A, C68A, M86C) (human) (UniProt Q14116); assay: cell-based or functional assay
[26] = target: IL-18 polypeptide of SEQ ID NO: 41 (K53A, S55A) (human) (UniProt Q14116); assay: cell-based or functional assay
[27] = target: IL-18 polypeptide of SEQ ID NO: 43 (E06K, K53A, S55A, Y01G) (human) (UniProt Q14116); assay: cell-based or functional assay
[28] = target: IL-18 polypeptide of SEQ ID NO: 47 (C38S, C68S, C76S, C127S) (human) (UniProt Q14116); assay: cell-based or functional assay
[29] = target: IL-18 polypeptide of SEQ ID NO: 48 (C38S, C68S, C76S, C127S, K70C) (human) (UniProt Q14116); assay: cell-based or functional assay
[30] = target: IL-18 polypeptide of SEQ ID NO: 5 (E6K, V11I, C38A, K53A, T63A, C68A, C76A, M86C, C127A) (human) (UniProt Q14116); assay: cell-based or functional assay
[31] = target: IL-18 polypeptide of SEQ ID NO: 51 (T63A) (human) (UniProt Q14116); assay: cell-based or functional assay
[32] = target: IL-18 polypeptide of SEQ ID NO: 53 (K53A, T63A) (human) (UniProt Q14116); assay: cell-based or functional assay
[33] = target: IL-18 polypeptide of SEQ ID NO: 54 (E06K, K53A, C38S, C68S, C76S, C127S, K70C) (human) (UniProt Q14116); assay: cell-based or functional assay
[34] = target: IL-18 polypeptide of SEQ ID NO: 55 (K53A, T63A, C38S, C68S, C76S, C127S, K70C) (human) (UniProt Q14116); assay: cell-based or functional assay
[35] = target: IL-18 polypeptide of SEQ ID NO: 57 (E6K, C38S, K53A) (human) (UniProt Q14116); assay: cell-based or functional assay
[36] = target: IL-18 polypeptide of SEQ ID NO: 59 (E6K, C38A, K53A) (human) (UniProt Q14116); assay: cell-based or functional assay
[37] = target: IL-18 polypeptide of SEQ ID NO: 6 (E6K, V11I, C38A, K53A, T63A, C68A, C76A, D98C, C127A) (human) (UniProt Q14116); assay: cell-based or functional assay
[38] = target: IL-18 polypeptide of SEQ ID NO: 60 (E6K, C38Q, K53A) (human) (UniProt Q14116); assay: cell-based or functional assay
[39] = target: IL-18 polypeptide of SEQ ID NO: 62 (E6K, C38A, K53A, C127A) (human) (UniProt Q14116); assay: cell-based or functional assay

In the case of “Fc fused human IL-18 binding protein isoform a (IL-18BPa; R&D systems, Cat #119-BP) (from UniProt O95998 31-194) (Fc fusion)”, the IC50 (read off the curve), IFNg secretion of the stimulated NK92 cells (IFNg AlphaLISA signal) [1] is reported as 8 nM, the IC50 (read off the curve), IFNg secretion of the stimulated NK92 cells (IFNg AlphaLISA signal) [2] is reported as 10 nM and the IC50 (read off the curve), IFNg secretion of the stimulated NK92 cells (IFNg AlphaLISA signal) [3] is reported as 0.1 nM. The IC50 (read off the curve), IFNg secretion of the stimulated NK92 cells (IFNg AlphaLISA signal) [4] was 0.3 nM, the IC50 (read off the curve), IFNg secretion of the stimulated NK92 cells (IFNg AlphaLISA signal) [5] was 1 nM and the IC50 of IL-18BPa on IFNγ secretion by NK92 cells [6] was > 1000 nM. The IC50 of IL-18BPa on IFNγ secretion by NK92 cells [7] was 21.4 nM, the IC50 of IL-18BP on IFNγ secretion, NK92 cells [8] was 7.52 nM and the IC50 of IL-18BP on IFNγ secretion, NK92 cells [9] was 47.6 nM. For the same substance, the IC50 of IL-18BP on IFNγ secretion, NK92 cells [10] was 5.05 nM, the IC50 of IL-18BP on IFNγ secretion, NK92 cells [11] was 3.62 nM and the IC50 of IL-18BP on IFNγ secretion, NK92 cells [12] was 7.85 nM. It also gave an IC50 of IL-18BP on IFNγ secretion, NK92 cells [13] of 0.681 nM, an IC50 of IL-18BP on IFNγ secretion, NK92 cells [14] of 6.08 nM and an IC50 of IL-18BP on IFNγ secretion, NK92 cells [15] of 3.98 nM. The IC50 of IL-18BP on IFNγ secretion, NK92 cells [16] was 3.18 nM, the IC50 of IL-18BP on IFNγ secretion, NK92 cells [17] was 1.07 nM and the IC50 of IL-18BP on IFNγ secretion, NK92 cells [18] was 7.29 nM. For the same substance, the IC50 of IL-18BP on IFNγ secretion, NK92 cells [19] was 0.456 nM, the IC50 of IL-18BP on IFNγ secretion, NK92 cells [20] was 0.44 nM and the IC50 of IL-18BP on IFNγ secretion, NK92 cells [21] was 0.176 nM. The IC50 of IL-18BPa on IFNγ secretion by NK92 cells [22] was 0.282 nM, the IC50 of IL-18BP on IFNγ secretion, NK92 cells [23] was 27.3 nM and the IC50 of IL-18BP on IFNγ secretion, NK92 cells [24] was 4.46 nM. For the same substance, the IC50 of IL-18BP on IFNγ secretion, NK92 cells [25] was 396 nM, the IC50 of IL-18BP on IFNγ secretion, NK92 cells [26] was 37.3 nM and the IC50 of IL-18BP on IFNγ secretion, NK92 cells [27] was 27.8 nM. The IC50 of IL-18BP on IFNγ secretion, NK92 cells [28] was 0.444 nM, the IC50 of IL-18BP on IFNγ secretion, NK92 cells [29] was 0.114 nM and the IC50 of IL-18BP on IFNγ secretion, NK92 cells [30] was 62.4 nM. For the same substance, the IC50 of IL-18BP on IFNγ secretion, NK92 cells [31] was 0.239 nM, the IC50 of IL-18BP on IFNγ secretion, NK92 cells [32] was 18.2 nM and the IC50 of IL-18BP on IFNγ secretion, NK92 cells [33] was 23.5 nM. The IC50 of IL-18BP on IFNγ secretion, NK92 cells [34] was > 1000 nM, the IC50 of IL-18BP on IFNγ secretion, NK92 cells [35] was 146 nM and the IC50 of IL-18BP on IFNγ secretion, NK92 cells [36] was 654 nM. The IC50 of IL-18BP on IFNγ secretion, NK92 cells [37] was 5.85 nM, the IC50 of IL-18BP on IFNγ secretion, NK92 cells [38] was 780 nM and the IC50 of IL-18BP on IFNγ secretion, NK92 cells [39] was 284 nM.
